Experimental data as given in US12723255B2, “Herbicide tolerance genes and methods of use thereof” (priority 2014, dated 2026).

B1: MON-HT6: engineered oxygenase protein, amino acid sequence SEQ ID NO:31 (protein)
chain: MHAALSPLSQKYRFIDVQPLTGVLGAEITGVTLREPLDDNTWNEILDAFHTYQVIYFPGQAITNEQHIAFSRRFGPVDPVPLLKSIEGYPEVQMIRREANESGRVIGDDWHTDSTFLDAPPAAVVMYAREVPPYGGDTGFLSMYSAWDTLSDTMKATIEGLNVVHSATRVFGSLYQAQNRRFSNTSVKVMDVDAGDRETVHPLVVSHPVTGRRALYCNQVYCQRIEGMTDAESKPLLQFLYEHATRFDFTCRVRWKKDQVLVWDNLCTMHRAVPDYAGKFRYLTRTTVAGDKPSR
B2: MON-HT5: engineered oxygenase protein, amino acid sequence SEQ ID NO:28 (protein)
chain: MHAALTPLTNKYRFIDVQPLTGVLGAEITGVDLREPLDDSTWNEILDAFHTYQVIYFPGQAITNEQHIAFSRRFGPVDPVPLLKSIEGYPEVQMIRREANESGRVIGDDWHTDSTFLDAPPAAVVMRAIEVPEYGGDTGFLSMYSAWETLSPTMQATIEGLNVVHSATKVFGSLYQATNWRFSNTSVKVMDVDAGDRETVHPLVVTHPVTGRRALYCNQVYCQKIQGMTDAESKSLLQFLYEHATKFDFTCRVRWKKDQVLVWDNLCTMHRAVPDYAGKFRYLTRTTVAGDKPSR

How the values were obtained:
F1 hybrid maize plants [1] = assay: efficacy field trial for quizalofop-P tolerance and clethodim sensitivity; type: in vivo; details: scale 0 to 100; for average injury rating, V4 Growth Stage, 4x Quizalofop / average injury rating, V8 Growth Stage, 4x Quizalofop: 0.32 lb ai/acre at VE-V2, V4, V8; for average injury rating, V4 Growth Stage, 4x Quizalofop / average injury rating, V8 Growth Stage, 4x Quizalofop / average injury rating, V4 Growth Stage, 8x Quizalofop / average injury rating, V8 Growth Stage, 8x Quizalofop / average injury rating, V4 Growth Stage, 16x Quizalofop / average injury rating, V8 Growth Stage, 16x Quizalofop: with CTP unless label says no CTP; for average injury rating, V4 Growth Stage, 8x Quizalofop / average injury rating, V8 Growth Stage, 8x Quizalofop: 0.64 lb ai/acre at VE-V2, V4, V8; for average injury rating, V4 Growth Stage, 16x Quizalofop / average injury rating, V8 Growth Stage, 16x Quizalofop: 1.28 lb ai/acre at VE-V2, V4, V8; for average injury rating, V8 Growth Stage, 1x Clethodim: clethodim 0.25 lb ai/acre at V8, volunteer control
In short: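 F1 hybrids of MON89034 × R1 plants carrying MON-HT constructs, NK603×MON89034 control, at two sites. Quizalofop-P at 0.32, 0.64 or 1.28 lb ai/acre + 0.25% v/v NIS at VE-V2, V4 and V8; clethodim 0.25 lb ai/acre + NIS at V8. Injury rated visually 0–100 at 10-14 days after application.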

[2] = enzyme activity assay at 23° C. with purified enzyme; type: biochemical; details: for maximum activity as a percentage of the wild-type enzyme's activity, Haloxyfop: purified enzyme
Method: The enzyme activity of MON-HT protein variants with haloxyfop, fenoxaprop, fluazifop, and dichlorprop as substrates was determined using the enzyme activity assay conducted at 23° C. with purified enzyme. The activity was recorded as the maximum activity as a percentage of the wild-type enzyme's activity, which was set at 100%.

[3] = type: physicochemical; details: buffer; for T1/2, temperature where 50% of the protein was unfolded, Buffer: pH 7.5
In short: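 Thermal shift assay: purified enzyme in 30 mM Tris pH7.5, 150 mM NaCl, with or without 50 uM Fe2+ and 1.0 mM aKG. Unfolding followed by SYPRO orange fluorescence from 10° C. to 95° C. in 0.5° C. steps; melting temperature (T1/2) taken from the curve.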

F1 hybrid maize plants [4] = assay: efficacy field trial for 2,4-D tolerance; type: in vivo; details: scale 0 to 100, with CTP unless label says no CTP; for average injury rating, V4 Growth Stage, 2x 2,4-D / average injury rating, V8 Growth Stage, 2x 2,4-D: 2 lb ae/acre at VE-V2, V4, V8; for average injury rating, V4 Growth Stage, 4x 2,4-D / average injury rating, V8 Growth Stage, 4x 2,4-D: 4 lb ae/acre at VE-V2, V4, V8; for average injury rating, V4 Growth Stage, 8x 2,4-D / average injury rating, V8 Growth Stage, 8x 2,4-D: 8 lb ae/acre at VE-V2, V4, V8; for average injury rating, V4 Growth Stage, 16x 2,4-D / average injury rating, V8 Growth Stage, 16x 2,4-D: 16 lb ae/acre at VE-V2, V4, V8
In short: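 F1 hybrid maize carrying MON89034 crossed with MON-HT events, NK603×MON89034 hybrids as control, grown at two field locations. 2,4-D amine at 2, 4, 8 or 16 lb ac/acre plus 0.25% v/v NIS applied at VE-V2, V4 and V8; plots visually rated for injury after V4 and V8 applications.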

Molecule	average injury rating, V4 Growth Stage, 4x Quizalofop (F1 hybrid maize plants [1])	average injury rating, V8 Growth Stage, 4x Quizalofop (F1 hybrid maize plants [1])	average injury rating, V4 Growth Stage, 8x Quizalofop (F1 hybrid maize plants [1])	average injury rating, V8 Growth Stage, 8x Quizalofop (F1 hybrid maize plants [1])	average injury rating, V4 Growth Stage, 16x Quizalofop (F1 hybrid maize plants [1])	average injury rating, V8 Growth Stage, 16x Quizalofop (F1 hybrid maize plants [1])	average injury rating, V8 Growth Stage, 1x Clethodim (F1 hybrid maize plants [1])	maximum activity as a percentage of the wild-type enzyme's activity, Haloxyfop ([2]; wild-type set at 100%) [%]	maximum activity as a percentage of the wild-type enzyme's activity, Dichlorprop ([2]; wild-type set at 100%) [%]	maximum activity as a percentage of the wild-type enzyme's activity, Fluazifop ([2]; wild-type set at 100%) [%]	T1/2, temperature where 50% of the protein was unfolded, Buffer plus Fe2+ and aKG [3] [°C]	T1/2, temperature where 50% of the protein was unfolded, Buffer [3] [°C]	average injury rating, V4 Growth Stage, 2x 2,4-D (F1 hybrid maize plants [4])	average injury rating, V8 Growth Stage, 2x 2,4-D (F1 hybrid maize plants [4])	average injury rating, V4 Growth Stage, 4x 2,4-D (F1 hybrid maize plants [4])	average injury rating, V8 Growth Stage, 4x 2,4-D (F1 hybrid maize plants [4])	average injury rating, V4 Growth Stage, 8x 2,4-D (F1 hybrid maize plants [4])	average injury rating, V8 Growth Stage, 8x 2,4-D (F1 hybrid maize plants [4])	average injury rating, V4 Growth Stage, 16x 2,4-D (F1 hybrid maize plants [4])	average injury rating, V8 Growth Stage, 16x 2,4-D (F1 hybrid maize plants [4])	other results
B1	0.0	1.3	1.3	2.0	2.8	5.0	93.3	75	37	47	44	44	0.0	6.3	2.0	4.3	5.8	11.3	8.8	12.5	
B2	1.3	2.5	4.5	0.0	4.5	8.0	92.0	100	36	46	61	60	2.5	3.3	2.5	4.0	7.5	10.0	17.5	21.3	maximum activities for all four substrates compared with the wild-type enzyme ([2]; haloxyfop, fenoxaprop, fluazifop and dichlorprop): lower than, or equal to; maximum activity as a percentage of the wild-type enzyme's activity, Fenoxaprop ([2]; wild-type set at 100%): 92%
